Source: PMC8600089, “The development of a high-affinity conformation-sensitive antibody mimetic using a biocompatible copolymer carrier (iBody)” (The Journal of Biological Chemistry, 2021)
Starred links: 1 amine or outer side, 2 acyl side, 3 side chain; linkers in the order of their positions; H or OH if unused. Positions of bridges follow the written chain, without caps; N, C: chain ends. Groups on a side chain read outwards from the residue. *: point of attachment. PEG12 = NCCOCCOCCOCCOCCOCCOCCOCCOCCOCCOCCOCCOCCC(=O)O; Biotin = O=C1N[C@H]2[C@H](CS[C@H]2CCCCC(=O)*)N1; TBMB = c1c(C[*:1])cc(C[*:3])cc1C[*:2]

Target: T1, recombinant extracellular part of PSMA (construct not named; ELISA and SPR) (human, UniProt Q04609 44-750)
T1 construct: prostate-specific membrane antigen (PSMA), recombinant extracellular part; also called recombinant extracellular domain of PSMA; truncated version of the target enzyme
T1 sequence (Q04609 44-750): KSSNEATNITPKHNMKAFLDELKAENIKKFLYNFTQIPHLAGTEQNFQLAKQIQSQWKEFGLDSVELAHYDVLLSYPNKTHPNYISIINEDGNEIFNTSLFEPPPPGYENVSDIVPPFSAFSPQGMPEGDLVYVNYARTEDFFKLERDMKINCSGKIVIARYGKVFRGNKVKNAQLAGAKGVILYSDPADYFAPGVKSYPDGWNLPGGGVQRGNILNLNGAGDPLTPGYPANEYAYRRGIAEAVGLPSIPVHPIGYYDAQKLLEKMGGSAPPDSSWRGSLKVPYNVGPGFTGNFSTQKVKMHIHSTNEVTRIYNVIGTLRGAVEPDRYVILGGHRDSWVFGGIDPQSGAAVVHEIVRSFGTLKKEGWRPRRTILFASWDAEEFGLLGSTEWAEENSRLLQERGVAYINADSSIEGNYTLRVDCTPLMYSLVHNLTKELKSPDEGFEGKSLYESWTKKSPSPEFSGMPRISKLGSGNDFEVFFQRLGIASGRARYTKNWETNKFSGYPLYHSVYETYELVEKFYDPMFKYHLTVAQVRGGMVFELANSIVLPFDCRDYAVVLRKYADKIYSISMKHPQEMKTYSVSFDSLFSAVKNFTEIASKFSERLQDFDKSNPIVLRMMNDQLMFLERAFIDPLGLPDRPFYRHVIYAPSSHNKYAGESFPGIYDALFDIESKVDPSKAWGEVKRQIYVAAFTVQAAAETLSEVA
Settings: both partners purified

Binder | EC50
Ac-CDDECPDYVCGGSGK([PEG12-Biotin])-NH2 (linker 1-5-10 via TBMB; SMILES CC(=O)N[C@H]1CSCc2cc3cc(c2)CSC[C@H](NC(=O)[C@H](CCC(=O)O)NC(=O)[C@H](CC(=O)O)NC(=O)[C@H](CC(=O)O)NC1=O)C(=O)N1CCC[C@H]1C(=O)N[C@@H](CC(=O)O)C(=O)N[C@@H](Cc1ccc(O)cc1)C(=O)N[C@@H](C(C)C)C(=O)N[C@H](C(=O)NCC(=O)NCC(=O)N[C@@H](CO)C(=O)NCC(=O)N[C@@H](CCCCNC(=O)CCOCCOCCOCCOCCOCCOCCOCCOCCOCCOCCOCCOCCNC(=O)CCCC[C@@H]1SC[C@@H]2NC(=O)N[C@@H]21)C(N)=O)CSC3, bicyclic peptide selected by phage display against PSMA, with the GGSG spacer and an added lysine; also called the peptide; bicyclic peptide; source: synthetic peptide (SPPS, TBMB cyclization, RP HPLC); not shown: biotin (through a PEG12 linker on the C-terminal lysine), C-terminal, kept) [Peptide 1 (compound 1), TBMB-cyclized Ac-CDDECPDYVCGGSGK[PEG12-biotin]-NH2] | > 5000 nM
CDDECPDYVCGGSGK (designed binder, not fully specified; N-terminus acetylated; C-terminal amide; three cysteines cyclized with TBMB; lysine side chain carries (CO)CH2CH2(OCH2CH2)5-NH2 (compound 2), through which the peptide is joined to the HPMA copolymer backbone; the polymer also carries ATTO488 (3.0× per polymer) and biotin (11.6× per polymer), bicyclic Peptide 1 as compound 2, 9.8 copies per polymer (20.4 wt%); Not a polypeptide as a whole: about 9.8 copies of the peptide on a synthetic HPMA copolymer (Mn = 88,100 g/mol, Mw = 104,000 g/mol); also called the iBody; copies: 9.8) [iBody 1, poly(HPMA-co-Ma-β-Ala-compound 2-co-Ma-β-Ala-ATTO488-co-Ma-β-Ala-NH-ED-biotin)] | 2 nM
